Assay results: the supplement of paper PMC9170038

System: MS2 coat protein
Assay: apparent KD of MS2 coat protein; designed switch direction (-1 OFF switch, 1 ON switch): -1; higher = weaker reporter binding
In short: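 Apparent KD, taken as the median over clusters for each design, was obtained by curve-fitting normalised cluster fluorescence. Designed RNA switches had been transcribed on Illumina chips by stalled E. coli RNA polymerase and titrated with SNAP-549-labelled MS2 coat protein, doubling from 0.7 or 1.5 nM to 3 µM.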

[1] = Eterna round: R95, input ligand: FMN 200 uM
[2] = Eterna round: R95, input ligand: microRNA oligo, concentration not stated
[3] = Eterna round: R95, input ligand: none
[4] = input ligand: microRNA oligo, concentration not stated

CGAAAGGUAGGAUAUACGAAGAAAAAGGGUAGAAGAAGAACACAUGAGGAUCACCCAUGUAGAAGGACCAAAGC [Mat - Exclusion 2 - Mod of my Tesla design - D16] (puzzle: Exclusion 2)
apparent KD of MS2 coat protein [1]: 0.0651 µM | apparent KD of MS2 coat protein [2]: 0.0221 µM | apparent KD of MS2 coat protein [3]: 0.0205 µM

ACAUGAGGAUCACCCAUGUCCGGCUGGUCUGUUCCGGCUGUCGAGGAUAUAGUCCGGUGUUCGCGCUAGAAGGCGGGAGCUGGA [Aenatbe mod 51] (Eterna round: R96, puzzle: Exclusion NG 3)
apparent KD of MS2 coat protein (input ligand: FMN 200 uM): 0.0675 µM | apparent KD of MS2 coat protein [4]: 0.0345 µM | apparent KD of MS2 coat protein (input ligand: none): 0.0462 µM

AGUAACAGAGGAUAUACUAUUUUAUGUGUUUGUUAUUUUAAACAUGAGGAUCACCCAUGUAGAAGGCUGAAUAA [JMF 84] (puzzle: Exclusion 2)
apparent KD of MS2 coat protein [2]: 0.021 µM

GUACUGAAGCUUUGCUUUAGUCGUACAUGAGGAUCACCCAUGUAGGAUAUGGUAAGCAUAGCUUACUAGAAGGAUAGAGUGAUC [Mat - Exclusion NG 3 - Mod of JL - D65] (Eterna round: R96, puzzle: Exclusion NG 3)
apparent KD of MS2 coat protein (input ligand: FMN 200 uM): 0.169 µM | apparent KD of MS2 coat protein [4]: 0.0566 µM | apparent KD of MS2 coat protein (input ligand: none): 0.0978 µM

CUUGACUGAGGAUAUUGUGCUGCUGACAUGAGGAUCACCCAUGUAUGUUAACUCGGCCGUCGAGAAGGCAGAAAGG [BotMod 19 - Jieux - Exclusion 5] (Eterna round: R97, puzzle: Exclusion 5)
apparent KD of MS2 coat protein (input ligand: FMN 200 uM): 0.0142 µM | apparent KD of MS2 coat protein (input ligand: none): 0.0408 µM

GUUUUGUGAGGAUAUCCCUAUCAUCUAGCUGACUAGAUGGUGGAGAAGGCACAUGAGGAUCACCCAUGUGGGAG [Eternabot (L1) Solution 3] (Eterna round: R97, puzzle: Exclusion 4)
apparent KD of MS2 coat protein (input ligand: FMN 200 uM): 0.111 µM | apparent KD of MS2 coat protein (input ligand: none): 0.0901 µM

ACAUGAGGAUCACCCAUGUCCGGCUGGUCUGGUCCGGCUGUCGAGGAUAUAGUCCGGUGUUCGCGCUAGAAGGCGGGAGCUGGA [Aenatbe mod 50] (Eterna round: R96, puzzle: Exclusion NG 3)
apparent KD of MS2 coat protein (input ligand: FMN 200 uM): 0.144 µM | apparent KD of MS2 coat protein [4]: 0.0622 µM | apparent KD of MS2 coat protein (input ligand: none): 0.085 µM

GUCAACGCAGGAUAUUAGAACUUUUACAUGAGGAUCACCCAUGUUAAUUGGGUCUAAGAAUAAGAAGGGCGAUGAA [JR_Ex5_Sub011] (Eterna round: R97, puzzle: Exclusion 5)
apparent KD of MS2 coat protein (input ligand: FMN 200 uM): 0.0158 µM | apparent KD of MS2 coat protein (input ligand: none): 0.014 µM

UGCAGACGAGGAUAUAGAUUUAGAUACAUGAGGAUCACCCAUGUAUAGAUGUAUUUAGAUUUAGAAGGCGUCUGCU [E5/13-A4] (Eterna round: R97, puzzle: Exclusion 5)
apparent KD of MS2 coat protein (input ligand: FMN 200 uM): 0.156 µM | apparent KD of MS2 coat protein (input ligand: none): 0.176 µM

AGAUCCUGAGUCAGGAUAUAGAGACGGUAGUCGGGCUAGAAGGGACAUGAGGAUCACCCAUGUGGGUUCGGGCC [Zarareso] (puzzle: Brourd's mod of Exclusion 4)
apparent KD of MS2 coat protein [2]: 0.0128 µM

UGUACGAUGCGUGCUGACAUGCGUCGUGCAGCAGGUGAUACAUGAGGAUCACCCAUGUCCUCAUUUGCUCGUCUAGU [Mat - Sensor v3 - Turn-off var 2 - D24] (puzzle: Sensor v3, turn-off variant 2)
apparent KD of MS2 coat protein [1]: 0.0725 µM | apparent KD of MS2 coat protein [2]: 0.467 µM | apparent KD of MS2 coat protein [3]: 0.0784 µM

UAUCGGCGGACCCAGGCUUUUUGCUCGUCUUAUGCUAUGACAUGAGGAUCACCCAUGUGGUGGUGGUCCGUUGUAGU [JL ViennaUCT Bitein mod 11] (puzzle: Sensor v3, turn-off variant 2)
apparent KD of MS2 coat protein [1]: 0.0211 µM | apparent KD of MS2 coat protein [2]: 0.0113 µM | apparent KD of MS2 coat protein [3]: 0.0195 µM

UUGUGCACGCUGCGAUCCUACAUGAGGAUCACCCAUGUGGUCUGGUGGCGUGGGUCACCGGACUUGGCUCGUCUUGU [salish99_S_TOV1_R5_080] (Eterna round: R97, puzzle: Sensor, turn-off variant 1)
apparent KD of MS2 coat protein (input ligand: FMN 200 uM): 0.0696 µM | apparent KD of MS2 coat protein (input ligand: none): 0.0808 µM

CAAAAUGUAUAAGGAUAUCUCGCCAAUAAAGGCAGAGAAGGUAUACCCACUUGAGGAUCACCCAAGUCACGUGUGCCUGGUGGA [Mutated MS2 EX1.25] (Eterna round: R96, puzzle: Exclusion NG 1)
apparent KD of MS2 coat protein (input ligand: FMN 200 uM): 0.00927 µM | apparent KD of MS2 coat protein [4]: 0.00925 µM | apparent KD of MS2 coat protein (input ligand: none): 0.011 µM

CCCUUGUGAGGAUAUUCUUAAAAUGCUAACCACAAUUUUAUGAAGAAGGCACAUGAGGAUCACCCAUGUUUCUC [mod1] (Eterna round: R97, puzzle: Exclusion 4)
apparent KD of MS2 coat protein (input ligand: FMN 200 uM): 0.0805 µM | apparent KD of MS2 coat protein (input ligand: none): 0.0964 µM

AAAAUACGCACAGGAUAUCGAUACAUGAGGAUCACCCAUGUAACAUGGACUGGUCAGCAGAAAAGCGAGAAGGGUGCUGACGAC [Lediaroren] (Eterna round: R96, puzzle: Exclusion NG 2)
apparent KD of MS2 coat protein (input ligand: FMN 200 uM): 0.334 µM | apparent KD of MS2 coat protein [4]: 0.0903 µM | apparent KD of MS2 coat protein (input ligand: none): 0.0556 µM

ACAAAGGAUACAGGAUAUCGCGUACAAGUGCAGCGAGAAGGGUAUUCUAUGCGCUAUCCGACAUGAGGAUCACCCAUGUGGUCC [Eternabot solution 47] (Eterna round: R96, puzzle: Exclusion NG 1)
apparent KD of MS2 coat protein (input ligand: FMN 200 uM): 0.417 µM | apparent KD of MS2 coat protein [4]: 0.851 µM | apparent KD of MS2 coat protein (input ligand: none): 0.366 µM

GUGCAACAUGAGGAUCACCCAUGUCAGGAUAUGCGAAUUUCAUCAAAAGAUGAAAUUUGCAGAAGGGACUAUAC [Omei Ex1 A22] (Eterna round: R97, puzzle: Exclusion 1)
apparent KD of MS2 coat protein (input ligand: FMN 200 uM): 0.0674 µM | apparent KD of MS2 coat protein (input ligand: none): 0.0385 µM

AAGAAGAAACAAGCUUUUUGCACGUCAUAUAGUGACGCAACAUGAGGAUCACCCAUGUAUAGGGUGGGAAAGGAUAG [JR_SV3TOV2_Sub047] (Eterna round: R96, puzzle: Sensor v3, turn-off variant 2)
apparent KD of MS2 coat protein (input ligand: FMN 200 uM): 0.669 µM | apparent KD of MS2 coat protein [4]: 0.352 µM | apparent KD of MS2 coat protein (input ligand: none): 0.826 µM

AAUAAGCUAGGAUAUACAUGAGGAUCACCCAUGUAUGACGAUACAGAAUCUGGCCCGAGUAGAAGGAGCAAACU [EX3 B.7] (Eterna round: R97, puzzle: Exclusion 3)
apparent KD of MS2 coat protein (input ligand: FMN 200 uM): 0.0232 µM | apparent KD of MS2 coat protein (input ligand: none): 0.0174 µM

AGUACUAUCACGAAAGUGAUAGUACAAUAAGCUUGUGAAACAUGAGGAUCACCCAUGUCCUCAUAAGCUCGUCUUAU [JL turnoff v2 77] (Eterna round: R96, puzzle: Sensor v2, turn-off variant 2)
apparent KD of MS2 coat protein (input ligand: FMN 200 uM): 0.0161 µM | apparent KD of MS2 coat protein [4]: 0.463 µM | apparent KD of MS2 coat protein (input ligand: none): 0.0187 µM

CUAUUACGAGGAUAUGAUUUAAAUAACAUGAGGAUCACCCAUGUUUUUACGUUAUUAUGUUCAGAAGGCGUAUUGU [JR_E5_Sub025] (puzzle: Exclusion 5)
apparent KD of MS2 coat protein [2]: 0.028 µM

AAGUACCGGUGAGGAUAUUUUUAAUAGAGCUUUAUGAUAUACAUGAGGAUCACCCAUGUUACGUUAAAGAAGGCAUCGGAUUAA [Mat - Exclusion NG 2 - Mod of JL - D97] (Eterna round: R96, puzzle: Exclusion NG 2)
apparent KD of MS2 coat protein (input ligand: FMN 200 uM): 0.0161 µM | apparent KD of MS2 coat protein [4]: 0.0137 µM | apparent KD of MS2 coat protein (input ligand: none): 0.0193 µM

UUUUGAAAGUGAGGAUAUGACAUGAGGAUCACCCAUGUAAAGGGAGUUGACUAUAUAGAAAGAUAUCAGAAGGCACAAAUGUUU [JR_ExcNG2_Sub002] (Eterna round: R96, puzzle: Exclusion NG 2)
apparent KD of MS2 coat protein (input ligand: FMN 200 uM): 0.839 µM | apparent KD of MS2 coat protein [4]: 0.237 µM | apparent KD of MS2 coat protein (input ligand: none): 0.321 µM
